Measurements published in PMC11602160.

Tests used:
[1] = target: N_(IDR1-core), N variant with IDR1, RBD and DD in which the 67-residue linker is replaced by a 12-residue GSA-linker (SARS-CoV-2)
[2] = target: N_(IDR1-core), N variant with IDR1, RBD and DD in which the 67-residue linker is replaced by a 12-residue GSA-linker (SARS-CoV-2); experiment: ITC; iTC200, 10°C; […]; 20 mM Tris-HCl pH 8.0, 150 mM NaCl, 5% glycerol; […]

Substance | stoichiometry N [1] | Kd [2]
N_(IDR1-core), N variant with IDR1, RBD and DD in which the 67-residue linker is replaced by a 12-residue GSA-linker (domain or fragment) | 2 | 
UPF2S, UPF2 variant comprising the MIF4G3 and the U1BD domains (from UniProt Q9HAU5 761-1227) (domain or fragment) |  | 2.9 µM
